15 molecules from US20210230273A1 (Alexion, published 2021) can be followed below.

Assay [1] addresses recombinant human CD200 Fc Chimera (human) (UniProt P41217). As to the kind of experiment: SPR (Biacore 3000), CD200-Fc captured by anti-human Fc on CM5, Fab injected, 1:1 Langmuir. In general terms: SPR reads the build-up and loss of mass on a sensor chip optically.
Assay [2] shares this target. As to the kind of experiment: SPR (Biacore), CD200 captured by anti-Fc (human) on CM5, Fab injected.
Assay [3] deals with T1, cell surface CD200 (human, UniProt P41217 31-278).
T1 construct: whole, on cells; also called CD200 on CD200 expressing Raji cells; CD200+ Raji cells
T1 sequence (looked up): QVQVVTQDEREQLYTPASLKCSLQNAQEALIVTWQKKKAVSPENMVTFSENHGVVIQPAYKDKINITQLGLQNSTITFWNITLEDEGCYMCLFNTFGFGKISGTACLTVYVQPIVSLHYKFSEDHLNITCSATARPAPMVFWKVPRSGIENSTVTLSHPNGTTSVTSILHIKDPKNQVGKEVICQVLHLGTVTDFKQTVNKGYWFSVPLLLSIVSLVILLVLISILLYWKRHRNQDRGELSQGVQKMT
As to the kind of experiment: flow cytometry, inhibition of labelled CD200R-Fc binding to CD200+ Raji cells; mean ± SD. From the text:
(§1) Next, the abilities of the newly-engineered anti-CD200 antibodies to antagonize CD200R were compared with that of samalizumab using CD200+ Raji cells. […] Binding of labeled CD200R-Fc was detected by flow cytometry.

Assay [4] addresses T1, cell surface CD200. Kind of assay: flow cytometry, inhibition of labelled CD200R-Fc binding to CD200+ Raji cells; n = 1.
Source text: as §1
In general terms: A flow cytometer gives signals particle by particle.

In assay [5] the target is T1, cell surface CD200. As to the kind of experiment: whole-blood CD200 receptor occupancy by flow cytometry, B cells (CD19+); unlabelled antibody incubated overnight, free CD200 against total CD200 (1B2-AF647). How it is done:
(§2) Whole blood (including sodium heparin as anticoagulant) was added at 250 μL/FACs tube and sealed. Tubes were incubated at 25° C. in a temperature-controlled cabinet overnight to allow therapeutic antibody binding.
(§3) FACS Antibody Staining: Cells were blocked with Fc blocking reagent for 30 min. Red blood cells were lysed with hemolytic buffer; remaining cells were spun 800×g for 5 minutes, and the resulting cell pellet was washed twice with PBS. After final wash, cell pellets were resuspended into 200 μL PBS. Cells were stained with a fixable Live/Dead dye for 20 minutes protected from light, and then neutralized and washed with FACS buffer. After the final wash the cells were resuspended in 100 μL wash with FcR block. Labeled antibody cocktail mixes were prepared CD3-PE/CD19-FITC/Alexa-647 or CD3-PE/CD19-FITC/1B2-647 in blocking buffer as well as appropriate controls (single color and FMO). The appropriate amount of antibody was added and incubated with cells protected from light for 30 minutes at room temperature. […]
(§4) FACS Analysis: Data was acquired on an automated cell analyzer (BD Fortessa) by gating on lymphocytes, and single live cells followed by B cell (CD19+-FITC) and T cells (CD3-PE) populations. […] Percent receptor occupancy was calculated from the MFI (median fluorescence intensity) according to the following formula: […]

Assay [6] concerns the target T1, cell surface CD200. As to the kind of experiment: whole-blood CD200 receptor occupancy by flow cytometry, T cells (CD3+); unlabelled antibody incubated overnight, free CD200 against total CD200 (1B2-AF647). How it is done: as §2, §3, §4

Numbering of substitutions follows the chain as printed.

B1: TPP-101 (Fab, V domains shown)
VH: QVQLQQSGSELKKPGASVKISCKASGYSFTDYIILWVRQNPGKGLEWIGHIDPYYGSSNYNLKFKGRVTITADQSTTTAYMELSSLRSEDTAVYYCGRSKRDYFDYWGQGTTLTVSS
VL: DIQMTQSPSSLSASIGDRVTITCKASQDINSYLSWFQQKPGKAPKLLIYRANRLVDGVPSRFSGSGSGTDYTLTISSLQPEDFAVYYCLQYDEFPYTFGGGTKLEIK
The Kd is a measure of binding affinity in units of concentration. In general, koff refers to the rate constant with which the complex falls apart. For orientation: kon means a measure of how fast the partners come together. As for B1, in assay [1], the dissociation constant Kd stood at 5.53 nM, the koff is 0.0148 s⁻¹ and the kon came to 2.67e+06 M⁻¹ s⁻¹. In assay [2], the Kd amounted to 6.01 nM, the koff came out at 0.0175 s⁻¹ and the kon was determined as 2.91e+06 M⁻¹ s⁻¹.

B2: samalizumab (antibody, human IgG2, kappa, V domains shown)
VH: B1 VH
VL: DIQMTQSPSSLSASIGDRVTITCKASQDINSYLSWFQQKPGKAPKLLIYRANRLVDGVPSRFSGSGSGTDYTLTISSLQPEDFAVYYCLQYDEFPYTFGGGTKLEIKR
notes: Humanized anti-human CD200 mAb with G2/G4 constant region; also called ALXN6000; TPP-309
The term EC50 denotes the concentration at which the effect is half-maximal. A high value points to weaker potency. Take B2: in assay [3], the EC50 came to 0.46 nM.

B3: TPP-751 (Fab, V domains shown)
VH: QVQLVQSGAEVKKPGASVKVSCKASGYSFTDYIILWVRQAPGQRLEWMGHIDPYYGSSNYNLKFKGRVTITRDTSASTAYMELSSLRSEDTAVYYCGRSKRDYFDYWGQGTLVTVSS
VL: B1 VL with I15V, L46S, Y71F, V85T, G100Q
Consider B3, for which, in assay [2], the Kd stood at 0.104 nM, the fold better affinity than mouse parental c2aB7 (TPP-100 Fab) is 3 fold, the fold better affinity than samalizumab (TPP-101 Fab) was found to be 45 fold and the off-rate (koff) is 0.00022 s⁻¹. Also, the kon in assay [2] came out at 2.11e+06 M⁻¹ s⁻¹.

B4: TPP-131 (Fab, V domains shown)
VH: B3 VH with V2M, P14T, A16S, R44A, T74R, A76M, V93M, G97A
VL: B1 VL with I15V, L46S, Y71F, V85T, G100Q
Regarding B4, in assay [1], the Kd came to 0.887 nM, the koff was 0.00235 s⁻¹ and the kon was found to be 2.65e+06 M⁻¹ s⁻¹.

B5: TPP-135 (Fab, V domains shown)
VH: B3 VH with V2M, A9P, A16T, P41R, M48I, T74M, A76T, G97A, R98A
VL: B1 VL with I15V, L46S, Y71F, V85T, G100Q
Turning to B5, in assay [1], the dissociation constant Kd came out at 15.7 nM, the koff was found to be 0.0146 s⁻¹ and the kon is 930000 M⁻¹ s⁻¹.

B6: TPP-139 (Fab, V domains shown)
VH: QVQLVQSGSELKKPGASVKVSCKASGYSFTDYIILWVRQAPGQGLEWMGHIDPYYGSSNYNLKFKGRFVFSLDTSVSTAYLQISSLKAEDTAVYYCARSKRDYFDYWGQGTLVTVSS
VL: B1 VL with I15V, L46S, Y71F, V85T, G100Q
As for B6, in assay [1], the Kd turned out to be 3.71 nM, the koff was determined as 0.00368 s⁻¹ and the kon is 993000 M⁻¹ s⁻¹.

B7: TPP-741 (Fab, V domains shown)
VH: B3 VH with M48I, G97A
VL: B1 VL with I15V, L46S, Y71F, V85T, G100Q
B7: in assay [2], the Kd was 0.407 nM, the koff is 0.000707 s⁻¹ and the kon was determined as 1.74e+06 M⁻¹ s⁻¹.

B8: TPP-123 (Fab, V domains shown)
VH: B3 VH with P41T, R44G, I70M, D73N, A76I, G97A
VL: B1 VL with I15V, L46S, Y71F, V85T, G100Q
B8: in assay [1], the Kd came out at 4.36 nM, the koff turned out to be 0.00487 s⁻¹ and the kon is 1.12e+06 M⁻¹ s⁻¹.

B9: TPP-103 (Fab, V domains shown)
VH: B3 VH with R44G, I70M, A76T, A79V, G97A
VL: B1 VL with I15V, L46S, Y71F, V85T, G100Q
On to B9, for which, in assay [1], the Kd is 10.1 nM, the koff is 0.00704 s⁻¹ and the on-rate constant (kon) came out at 694000 M⁻¹ s⁻¹.

B10: TPP-107 (Fab, V domains shown)
VH: B3 VH with A16S, R44G, R72A, T74E, A76T, G97A
VL: B1 VL with I15V, L46S, Y71F, V85T, G100Q
On to B10, for which, in assay [1], the Kd worked out at 4.64 nM, the koff came out at 0.0041 s⁻¹ and the kon came to 885000 M⁻¹ s⁻¹.

B11: TPP-111 (Fab, V domains shown)
VH: B3 VH with R44G, I70M, R72T, A76T, S84R, E89D, G97A
VL: B1 VL with I15V, L46S, Y71F, V85T, G100Q
Regarding B11, in assay [1], the Kd was 5.08 nM, the koff came to 0.00625 s⁻¹ and the kon worked out at 1.23e+06 M⁻¹ s⁻¹.

B12: TPP-115 (Fab, V domains shown)
VH: B3 VH with R44G, I70M, A76I, S85R, E89D, G97A
VL: B1 VL with I15V, L46S, Y71F, V85T, G100Q
As for B12, in assay [1], the Kd amounted to 4.04 nM, the koff is 0.0053 s⁻¹ and the kon is 1.31e+06 M⁻¹ s⁻¹.

B13: TPP-709 (Fab, V domains shown)
VH: B3 VH
VL: B1 VL with I15V, L46S, Y71F, A84G, V85T, G100Q
As for B13, in assay [2], the Kd is 0.132 nM, the fold better affinity than mouse parental c2aB7 (TPP-100 Fab) turned out to be 3 fold, the fold better affinity than samalizumab (TPP-101 Fab) was 45 fold and the koff was determined as 0.00024 s⁻¹. Also, in assay [2], the kon worked out at 1.82e+06 M⁻¹ s⁻¹.

B14: TPP-100 (Fab, V domains shown)
VH: EVQLQQSGPELVKPGASLKMSCKASGYSFTDYIILWVKQNHGKSLEWIGHIDPYYGSSNYNLKFKGKATLTVDKSSSTAYMQLNSLTSEDSAVYYCGRSKRDYFDYWGQGTTLTVSS
VL: DIQMTQSPSSMYASLGERVTITCKASQDINSYLSWFQQKPGKSPKTLIYRANRLVDGVPSRFSGSGSGQDYSLTISSLEYEDMGIYYCLQYDEFPYTFGGGTKLEIK
As to B14, in assay [1], the equilibrium dissociation constant (Kd) is 0.488 nM, the koff was 0.000739 s⁻¹ and the on-rate constant (kon) was 1.51e+06 M⁻¹ s⁻¹. In assay [2], the Kd worked out at 0.442 nM, the koff stood at 0.000747 s⁻¹ and the kon stood at 1.69e+06 M⁻¹ s⁻¹.

B15: TPP-1143 (antibody, human IgG2, kappa, V domains shown)
VH: B3 VH
VL: B2 VL with I15V, L46S, Y71F, A84G, V85T, G100Q
notes: mAb with human G2G4 Fc (effectorless); also called TPP-11143 (as printed once)
By EC50 (read off the curve) is commonly meant the concentration giving half of the maximal effect. Low values mean an effect from little substance, high ones a need for much substance. B15 returned an EC50 in assay [4] of 0.186 nM. Moreover, the “EC50 (read off the curve)” value in assay [5] and in assay [6] was about 4 ng/mL each time.
